# The nanobody polyreactivity screen of Harvey et al. (2022)
# Test: yeast display, Sf9 membrane polyspecificity reagent, FACS + sequencing; frameworks hold sequencing errors
# In short: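 Nanobodies came from a synthetic yeast display library in Saccharomyces cerevisiae BJ5465, induced with galactose for 36–48 hours and stained for 1 hour at 4 °C with 10% biotinylated, detergent-solubilized Sf9 membrane reagent. Cells were enriched on streptavidin microbeads and then FACS-sorted, with low and high (top ~1%) gates set on anti-HA fluorescence for expression and streptavidin fluorescence for reagent binding. Each polyreactivity label reflects the gate a clone came from. Genes were amplified by colony PCR, sequenced by MiSeq 2 × 250 and filtered by CDR length.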
row,Sequence,polyreactivity (PSR sort gate)
1,QVQLQESGGGLVQAGGSLRLSCAASGNISSYYRMGWYRQAPGKEREFVATIAVGGTTNYADSVKGRFTISRDNAINTVFLQRNSLNTEDTAVCFCAANSTQYTWFDYWGQGTQVPVSS,low polyreactivity
2,QVQLVESGGGLVQAGGSLRLSCAASGSTFTPYAMGWYRQAPGKERELVAAISIRGGSTNYADSVKGRFTISRDNAKNTVYLQMNSLKPEDTAVYYCNAGRLRYIFKSYDYWGQGTQVTVSS,high polyreactivity
3,HAQLQESGGGLVQAGGSLRRSCAASGSMFRFSGMGWYRRAPGKERELVASIGFGSITYYADRVKGRFTISRDNANHTVYLQMNTLKPEDTAVYYCAVQVQDESWLDYWGQGTQVTVSC,low polyreactivity
4,QVQLVESGGGLVQAGGSLRLSCAASGRTLIHYAMGWYRQAPGKERELVATINIGGRTYADSVKGRFTISRDNAKNTVYLQMNSLKPEDTAVYYCAADHRYSARRSVPTLYDYWGQGTQVTVSS,low polyreactivity
5,QVQLVESGGGLVQAGGSLRLSCAASGSIFYSNFMGWYRQAPGKERELVARITDAGSTNYADSVKGRFTISRDNAKNSVYLQMNSLKPEDTAVYYCNARLVIYTYDYWGQGTQVTVSS,low polyreactivity
6,QVQLVESGGGLDQAGGSLRLSCAASGSTFRQNVKGWYRQAPGKERELVAAISKSGGSTYYADSVKGRFTISRDNAKNTVYLQMNSLKPEDTAVYYCATRQRQRVDNREYYYWGQGTQVTVSS,high polyreactivity
7,QVQLVESGAGLVQAGGSLRLSCAASGRIFYWNAMGWYTQAPGKEREFVAAISWSGGSTYADSVKGRFTISRDNAKNTVYLQMNSLKPEDTAVYYCATRVSRSFRAYDYWGQGTQVTVSS,high polyreactivity
8,QVQLVESGGGLVQAGGSLRLSCAASGITFFRYAMGWYRQAPGKERELVAAITTSGSSTFYADSVKGRFTISRDNAKNTVYLLMNSLKPEDTAVYYCAAVFRWARLYEYDYWGQGTQVTVSS,high polyreactivity
9,QVQLVESGGGLVQAGGSLRLSCAASGLSCYPYAMGWYRQAPGKEMELVAAITSGDSTYYADSVKGRFTISRDNAKNTVYLQMNSLKPVDTAVYYCAKPDWVEVVTDFEYWGQGTQVTVSS,low polyreactivity
10,QVQLVESGGGLDQAGGSLRLSCAASASIFWGYDMGWYRQAPGKEREFVARISYSGGSTSYAESVKGRFTISRDNAKNTVYLQMNSLKPEDTAVYYCAADEGVFWWTYPYDSWGQGTQVTVSS,low polyreactivity
11,QVQLVESGGRLVQAGCSLRLSCAASGSIFDVYAMGWYRPAPGKERELVAAISRGGRTYYADSVKGRFTISRDNAKNTVYLQMNSLKPEDTAVYYCAAVTRLDGNMDYWGQGTQVTVSS,high polyreactivity
12,QVQLVESGGGLVQAGGSLRLSCAASGRTFGHNAMGWYRQAPGKERELVAAISASGSNTYYADSVKGRFTISRDNAKNTVYLQMNSLKPEDTAVYYCAKQVYRPGQQSRYDYWGQGTQVTVSS,low polyreactivity
13,QVQLVESGGGLVQAGGSLRLSCAASGFTFTVYAMGWYRPAPGKERELVAVITSGDGTYYADSVKGRFTISRDNAKNTVYLQMNSLKPEDTAVYYCNARRYSSFRYRFAYDYWGQGTQVTVSS,low polyreactivity
14,QVQLVESGGGLVQAGGSLRLSCAASGFTFYVYAMGWYRQARGQERELVATISRGGSTNYADSVKGRFTISRDNAKNTVYLQMNSLKPEDTAVYYCAARKYHYFPSRYGYWGQGTQVTVSS,high polyreactivity
15,QVQLVESGGGLLQAGGSLRISCAASGITFVYYVMGWYRQAPRKERELVAGISSGGSTYYADSVKGRFTISRDNAKNTVYLQMISLKPEDTAVYYCNAVDTYGLWRRYNYWGQGTQVTVSS,high polyreactivity
16,QVQLVESGGGLVQAGGSLRLSCAASGSNFYRNAMGWYRQAPGKERELVAGIRWTGTRTYYADSVKGRFTISRDNAKNTVYLQMNSLKPEDTAVYYCNAVYSLSNAVDGDYWGQVTQVTVSS,high polyreactivity
17,QVQLVESGGGLVQAGGSLRLSCAASGSTFGANAMGWYRQAPGKERELVAAITYDGGSTYYADSVKGRFTISRDTAKNTVYLQMNSLKPEDTAVYYCAADFHIDSYYWGYYWGQGTQVTVSS,low polyreactivity
18,QVQLVESGGGLVKAGGSLRLSCAASGFSFFGYAMGWYRQAPGKERELVAAIDNGGSTNYADSVKGRFTISRDNAKNTVYLQMNSLKPEDTAVYYCNTDVDYAILDYWGQGTQVTVSS,low polyreactivity
19,QVQLVESGGGLVQAGGSLRLSCAASGRTFRAYAMGWYRQAPGKERELVAAIRSGTSTNYADSVKGRFTISRDNAKNTVYLQMNSLKPEDTAVYYCAAEWRKTYRYFTFGYWGQGTQVTVSS,high polyreactivity
20,QVQLVESGGGLVQAGGSLRLSCAASGFIFWRYAMGWYRQAPGKERELVAAITSGGRTNYADSVKGRFTISRDNAKNTVYLQMNSLKPEDTAVYYCAADRSWSPRAGWYDYWGQGTQVTVSS,high polyreactivity
21,QVQLVESGGGLVQAGGSLRLSCAASGSTFSPYALGWYRQATGKERELVAAISASGVGTYYADSVKGRFTISRDYAKNPVYLQMNRLIPEDTAVYYCCRDYGWDISKGRYGYWGQGTQVTVSS,low polyreactivity
22,QVQLVESGGGLVQAGGSLRLSCAASGLIFISYAMGWYRQAPGKERELVAAITSTVGGTYYADSVKGRFTISRDNAKNTVYLQMNSLQPEDTAVYYCAKEVWTWGPYYYWGQGTQVTVSS,low polyreactivity

row,Sequence,polyreactivity (PSR sort gate)
1,QFQLVESGRGIVQAGGSLRLSCAASGFTFGPSAMVWYRQAPGKERELVAVISRSGGRTYYADSVKGRFTISRDNAKNTVYLQMNSLKPEDTAVYYCAAAGYGNDGYDYWGQGTQVTVSS,high polyreactivity
2,QVQLVESGGGLVQAGGSLRLSCAASGLTFPDNAMGWYRQAPGKERELVAAITIDGSTYYADSVKGRFTISRDNAKNTVYLQMNSLKPEDTSVYYCNALVGVPYAMYYWGQGTQVTVSS,low polyreactivity
3,QVQLVESGGSLVQAGGSLRLSCAASGRIFHNNAMGWYRQAPGKERELVAAISTGGSTNYADSVKGRFTISRDNAKNTVYLQMNSLTPEDTAVYYCAAEHPVTYPTSKFDYWGQGTQVTVSS,low polyreactivity
4,QVQLVESGGGLVQAGGSLRLSCAASGFTFFTYAMGWYRQAPGKERELVAAITSGGSTNYADSVKGRFTISRDNAKNTVYLQMNSLKPEDTAVYYCATRAYSDATTFYGYQRSDSWGQGTQVTVSS,low polyreactivity
5,QVQLVESGGGLVQAGGSLRLSCAASGSIFYYNAMGWYRQAPGKERELVAAITSGDSTNYADSVKGRFTISRDNAKNPVYLQMNSLKPEDTAVYYCAADYLAALTYYRTYDYWGQGTQVTVSS,low polyreactivity
6,QVQLVESGGGLVQAGGSRRLSCAASGFFFDVNAMGWYRQAPGTEREWVATISKRGGTTYYADSVKGRFTISRDNAKNTVYLQMNSLKQEDTAVYYCAARHQSLRSYRYDYWGQGTQVTVSS,low polyreactivity
7,HVQRVESGGGLVQAGASLRLSCAASGGIFSYNAMGWYRQAPGKERELVAAISGTGGSTYYADSVKGRFTISRDNAMNTVYLQMNSLKPEDTAVYYCAADVEYKVFPGDYWGQGPQVTVSS,low polyreactivity
8,QVQVVESGGGLVQAGGSLRLSCAASGRTFVSYAMGWYRQATGKERELVAAISSSGGRTYYADSVKGRFTISRDNAMNTVYLQMNSLKPEDTAVYYCYAVRFISARYDYWGQGTQVTVSS,high polyreactivity
9,QVQLVESGGGLVQAGGSHRLSCAASGRTFRYNAMGWYRQATGKERELVAAISTRGGSTYYADSVKGRFTISRDNAKNTVYLQMNSLKPEDTAVYYCATKVYSSRYRGYGYWGQGTQVTVSS,high polyreactivity
10,QVQLVESGGGLVQAGGSLRLSCAASGRIFRWYAMGWYRQAPGKERELVAAISSRGGSTYYADSVKGRFTISRDNAKNTVYLQMNSLKPEDTAVYYCAADTSGWQPRYDYWGQGTQVTVSS,high polyreactivity
11,QVQLVESGGGLVQAGGSLRLSCAPSGSISQTYAMGWYRQAPGKERELVAAISSSGASTYYADSVKGRFTISRDNAKNTVYLQMNSLKPEDTAVYYCAALGRYRYIYNYWGQGTQVTVSS,high polyreactivity
12,QVQLVESGGGLVQAVGSLRLSCAASGSTFSRYAMGWYRQAPGKERELVAAISWGGNTYYADSVKGRFTISRDNAKNTVYLQMNSLKPVDTAVYYCNRYSKLYNTMDYWGQGTQVTVSS,high polyreactivity
13,QFQLVESGGGLVQAGGSLRLSCAASVLTFSAYAMGWYRQAPGKEREFVAAITDSDGSTYYADYVKGRFTISRDNEKNTVYLQMNSLKPEDTAVYYCAASGSWYYGYWSGGYDYWGQGTQVTVSS,low polyreactivity
14,QVQLVESGGGLVQAGGSLRLSCAASGSTYPYYAMGWYRQAPGKERELVAAITSSTGRTYYADAVKGRFTISRDNAKNTVYLQMNSLKPEDSAVYYCATYSTSVAYHLYYWGQGTQVTVSS,low polyreactivity
15,QVQLVESGGGLLQAGGSLRLSCAASGRTFYHYTMGWYRQAPGKERELVARITRRVGSTYYADSVKGRFTISRDNAKNIVYLQMNSLKPEDTAVYYCNSKSGVYRYLLDYWGQGTQVTVSS,high polyreactivity
16,QVHLVESGGGLVQAGGSLRLSWAASGSILRQYAMGWYRQAPGKERELVATITGDGSTNYADSVKGRFTISRDNAKNTVYLQMNSLKPQDTAVYYCITDLTYPNPNVEVMVYGFKLDYWGQGTQVTVSS,low polyreactivity
17,QVQLVESGGGLVQAGGSLRLSCAASGFIFFDNAMGWYRHAPGKETELVAVISSSGTSTYYADSVKGRFTISRDNAKNTVYLQMNSLKPEDTAVYYCNATARTGVYLESDYWGQGTQVTVSS,low polyreactivity
18,QVQLVESGGGLVQAGGSLRLSCAASGIILQSYTMGWYRQAPGKERELVAALTKSGGRTYYADSVKGRFTISRDNAKNTVYLQMNSLKPEDTAVYYCAAPLSYSYDYSGQGTQVTVSS,high polyreactivity
19,QVQLVESGGGLVQAGGSLRLSCAASGIIFFTYAMGWYRQATGKERELVAAISSGGSTTYADSVKGRFTISRDNAKNTVYLQMNSLKPEDTAVYYCAAGTQAHDYVVRPIDMDYWGQGTQVTVSS,low polyreactivity
20,QVQLVESGGGLVQAGGSLRLSCAASGITFTGYAMGWYRQAPGKERELVAAITWSSGSTYYADSVKGRFTISRDNAKNTVYLQMNSLKPEDTAVYYCNAGYWYDGPDYIPEYDYWGQGTQVTVSS,low polyreactivity
21,QVQLVESGGGLVQAGGSLRLSCAASGRTFAGNAMGWYRQAPGKERELVAAIRRTGGRTYYADSVKGRFTISRDNAKNTVYLQMNSLKPEDTAVYYCNAVNKPYTREYGYDYWGQGTQVTVSS,high polyreactivity
